Measured values taken from patent US11584938B2, “Plant EPSPS mutant containing L195P and S247G mutations and encoding gene and use thereof” (GEVOTO LLC, priority 2017, dated 2023).
Substitutions are numbered along the chain they refer to.

B1: R0: wild-type rice EPSPS, amino acid sequence SEQ ID NO: 28; control (protein, listed as Oryza sativa)
chain: MASNAAAAAAKAEEIVLQPIREISGAVQLPGSKSLSNRILLLSALSEGTTVVDNLLNSEDVHYMLEALKALGLSVEADKVAKRAVVVGCGGKFPVEKDAKEEVQLFLGNAGTAMRPLTAAVTAAGGNATYVLDGVPRMRERPIGDLVVGLKQLGADVDCFLGTECPPVRVKGIGGLPGGKVKLSGSISSQYLSALLMAAPLALGDVEIEIIDKLISIPYVEMTLRLMERFGVKAEHSDSWDRFYIKGGQKYKSPGNAYVEGDASSASYFLAGAAITGGTVTVQGCGTTSLQGDVKFAEVLEMMGAKVTWTDTSVTVTGPPREPYGKKHLKAVDVNMNKMPDVAMTLAVVALFADGPTAIRDVASWRVKETERMVAIRTELTKLGASVEEGPDYCIITPPEKLNITAIDTYDDHRMAMAFSLAACADVPVTIRDPGCTRKTFPNYFDVLSTFVRN
B2: T3: wheat EPSPS mutant, SEQ ID NO: 20, mutations S269(247)G and P118(101)S (protein)
chain: MATSVAAPAAPAGAEEVVLQPIREISGAVQLPGSKSLSNRILLLSALSEGTTVVDNLLNSEDVHYMLEALEALGLSVEADKVAKRAVVVGCGGRFPVEKDAKEEVKLFLGNAGTAMRSLTAAVVAAGGNATYVLDGVPRMRERPIGDLVVGLQQLGADVDCFLGTNCPPVRINGKGGLPGGKVKLSGSISSQYLSSLLMAAPLALEDVEIEIIDKLISVPYVEMTLKLMEHFGVTAEHSDSWDRFYIKGGQKYKSPGNAYVEGDASSAGYFLAGAAITGGTVTVEGCGTTSLQGDVKFAEVLEMMGAKVTWTDTSVTVTGPPRQPFGRKHLKAVDVNMNKMPDVAMTLAVVALFADGPTAIRDVASWRVKETERMVAIRTELTKLGATVEEGPDYCIITPPEKLNITAIDTYDDHRMAMAFSLAACAEVPVTIRDPGCTRKTFPNYFDVLSTFVKN
B3: T6: wheat EPSPS mutant, SEQ ID NO: 26, mutations L216(195)P, S269(247)G and P118(101)S (protein)
chain: B2 chain with L216P
B4: T4: wheat EPSPS mutant, SEQ ID NO: 22, mutation L216(195)P (protein)
chain: B2 chain with S118P, L216P, G269S
B5: T5: wheat EPSPS mutant, SEQ ID NO: 24, mutations L216(195)P and S269(247)G (protein)
chain: B2 chain with S118P, L216P

System: transgenic rice plants
Assay: glyphosate resistance of the EPSPS mutant in transgenic rice plants sprayed with Roundup 41% ammonium glyphosate
Format: in vivo, rice (Nipponbare)
Procedure, shortened: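 EPSPS mutant genes were cloned into pGVP1 and introduced into Nipponbare rice embryo-derived calluses via Agrobacterium EHA105 (OD 0.2, 10 min infection, 2–3 days co-culture at 25 °C in the dark). Calluses went through recovery, two 14-day screening rounds at 30 °C, two differentiation rounds and rooting to regenerate transgenic plants.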

[1] = 1× dosage 1060 g/hectare glyphosate sprayed, recorded on 10th day
[2] = 2× dosage 2120 g/hectare sprayed to plants surviving 1×, recorded 10 days later
[3] = 5× dosage 5300 g/hectare sprayed to plants surviving 2×, recorded 10 days later
[4] = 20× dosage 21200 g/hectare sprayed to plants surviving 5×, recorded 10 days later

Row | Molecule | %++&+++ (percentage of plant having medium and high glyphosate resistance to the total number of plants observed) [1] [%] | number of plants denoted by + (low glyphosate resistance) [1] | number of plants denoted by ++ (medium glyphosate resistance) [1] | number of plants denoted by +++ (high glyphosate resistance) [1] | number of plants denoted by − (no glyphosate resistance) [1] | glyphosate resistance / survival of the rice transformed by the EPSPS, in words (1× glyphosate dosage) | %++&+++ (percentage of plant having medium and high glyphosate resistance to the total number of plants observed) [2] [%] | number of plants denoted by + (low glyphosate resistance) [2] | number of plants denoted by ++ (medium glyphosate resistance) [2] | number of plants denoted by +++ (high glyphosate resistance) [2] | number of plants denoted by − (no glyphosate resistance) [2] | &++&+++ (percentage of plant having medium and high glyphosate resistance to the total number of plants observed) [3] [%] | number of plants denoted by + (low glyphosate resistance) [3] | number of plants denoted by ++ (medium glyphosate resistance) [3] | number of plants denoted by +++ (high glyphosate resistance) [3] | number of plants denoted by − (no glyphosate resistance) [3] | &++&+++ (percentage of plant having medium and high glyphosate resistance to the total number of plants observed) [4] [%] | number of plants denoted by + (low glyphosate resistance) [4] | number of plants denoted by ++ (medium glyphosate resistance) [4] | number of plants denoted by +++ (high glyphosate resistance) [4] | further results
1 | B1 | 0.0 | 1 | 0 | 0 | 30 | had no resistance, one was seriously damaged, and all the others died | 45.8 | 0 | 0 | 0 | 31 | 0.0 | 0 | 0 | 0 | 31 | 0.0 | 0 | 0 | 0 | number of plants denoted by − (no glyphosate resistance) [4]: 31
2 | B2 | 71.0 | 27 | 33 | 77 | 18 | had relatively high resistance to glyphosate | 51.0 | 47 | 46 | 33 | 29 | 25.8 | 75 | 38 | 2 | 40 | 3.2 | 57 | 5 | 0 | number of plants denoted by − (no glyphosate resistance) [4]: 93
3 | B3 | 85.9 | 7 | 15 | 52 | 4 | had relatively high resistance to glyphosate | 0.0 | 4 | 25 | 41 | 8 | 76.9 | 9 | 37 | 23 | 9 | 71.8 | 7 | 56 | 0 | number of plants denoted by − (no glyphosate resistance) [4]: 15
4 | B4 | 35.6 | 30 | 18 | 8 | 7 | obviously superior to that of the rice seedlings transformed by T0 | 18.2 | 40 | 0 | 4 | 34 | 0.0 | 12 | 0 | 0 | 66 | 0.0 | 0 | 0 | 0 | glyphosate resistance / survival of the rice transformed by the EPSPS, in words (2× glyphosate dosage): some of the transgenic rice seedlings transformed by T4, T1 and T5 still survived; glyphosate resistance / survival of the rice transformed by the EPSPS, in words (5× glyphosate dosage): some of the transgenic rice seedlings transformed by T4, T1 and T5 still survived; number of plants denoted by − (no glyphosate resistance) [4]: 78
5 | B5 | 45.5 | 6 | 3 | 7 | 6 | obviously superior to that of the rice seedlings transformed by T0 | 84.6 | 8 | 4 | 0 | 10 | 18.2 | 5 | 4 | 0 | 13 | 13.6 | 3 | 3 | 0 | glyphosate resistance / survival of the rice transformed by the EPSPS, in words (2× glyphosate dosage): some of the transgenic rice seedlings transformed by T4, T1 and T5 still survived; glyphosate resistance / survival of the rice transformed by the EPSPS, in words (5× glyphosate dosage): some of the transgenic rice seedlings transformed by T4, T1 and T5 still survived; number of plants denoted by − (no glyphosate resistance) [4]: 16
